The domain aggregation screens of Martell et al. (2025)

Test: soluble fraction after stress (log2 fold change); higher = more stays soluble; pooled small domains, quantitative proteomics
Settings: stress: 50 degC
Method in brief: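 Pooled custom libraries of small protein domains were each held under stress at 50°C. The read-out, high-throughput quantitative proteomics, tracked how much of each protein stayed soluble. This is reported as a base-two log fold change used to indicate aggregation propensity. Higher values mean more protein remains in solution.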

HMGGQKTREAIFDLIMTNSKITSAQIAEILGIHRSGVARHLKKLQEEGLIKREGPDNGGQWIVIK
soluble fraction (log2): -0.422

HMQNNKITIYISGAVNRPGIVTIESDKRLYDAVELLGGTTKEADLNGVNLSVRLEDEQHYIIPKIGEA
soluble fraction (log2): -0.0996

HMDTHRLNYSDFVAEVQAQRVSKVVIDGYTIVGQRTNGETFETVRPALQDPKLVDDLLQNNVIIEGKQPE
soluble fraction (log2): 0.0106

HMKQLLHLVIGGELKDVRGIEFEDLSKIDFVGAFPSYKAAYDAWKNAAQRTVDNAEMRYFILHAHR
soluble fraction (log2): -1.79

HMHRTMFYLDVDLAEGQSVKMAVHEDDDPGELAARFADEHQLKSRAMEKLRSVIEENVRLHRRNQ
soluble fraction (log2): -0.306

HMETITDRLNRRSLELNVSQADIIRTTGAGRGTVSGWFSGANAPSAKYLESLAVALKTSTTWLLSGKD
soluble fraction (log2): -0.741

HMKDESYALGTRLLSHALGKTKLEDLAQEKIDEVVQQSGNKTLEQLLTNIGLGNALSIGIARQLT
soluble fraction (log2): 0.383

HMNLSAREWTSADGSRTFQGELTGFQDGKVKVRRSDGKSLVFAIELLSESDQQFIKTNQLVIAKKDED
soluble fraction (log2): 0.161

HMTSGPAWPALSAQQRSVLAPLQRDWHTIDAARKAKWLEVAARFPSMPAEERQRVQERMAEWA
soluble fraction (log2): -0.0518

HMVRTIKILGIKHNINLYYKNVKVPTMNVKNQTLEIILPNKYKKFQEEQILKVLTQKLYDKIAETEIEKIK
soluble fraction (log2): -0.465

HMVAESGLPPAFRSTWRHIMQTRGAQLDVLAMRTGTDAASLQKQLHAMELGGWVRRMPGGWYVPLK
soluble fraction (log2): -0.736

HMYMTTADADMWKYVNTGRYNNDIQLMEEYKNRSMDSFEVITPEQQRKYNKAAMNLNSYYAWADPSYKPNP
soluble fraction (log2): -0.257

HMLSVRQRMGELLERLADGQFHRFESLFTVEEGKLGVVVTFLGLLTLAKEQLLDIVQEGPTAPIYVKSLA
soluble fraction (log2): -0.437

HMEEITLQEQINFIKDMLLNKEKFHLTDVITKKSKIYVVSLFLALLELIRLEEINFRQTQNFSDIIISRI
soluble fraction (log2): -0.138

HMDNEYDKVYQAALSKLEGYPRSSITTAVIKDVVAQTIKYFEIKNFGYEDTIINQLQSAFTVKSSS
soluble fraction (log2): -0.0856

HMYGQEVKVLGLFGDRAFIKVDEKSAVIRIGQSHQNVQLKSISNQKAILLVDNKDIALGLGDSYQSA
soluble fraction (log2): -0.244

HMGERVDGVVKFFNGQKGFGFIQREDGGPDAFVHISAVERAGMAGLDEGQRVSFELELDRRGKQAAINLTP
soluble fraction (log2): 0.00122

HMKGKIYFFEEGVDRVGGVERVISTLANEFSKKYKVNVISFYKTRKETFFKYNSDIDITYLSK
soluble fraction (log2): 0.14

HMSQEHTVPDYKDMEATVVYADLTQKGLNYEIAQETSPTIKEGNVTQTIPGMNEKVVSGDTITVFVSTGTG
soluble fraction (log2): 0.193

HMNDTLGVNIKRLRKEKGMTQDEVAKAVYTTRYNILRYESGKMTPSSEVIERLEKALGVPTGSLAQ
soluble fraction (log2): -0.332

HMQPDFLDAKASLALLGVRPQTLYAYVSRGAIRSVPQPGTKAHLYSRSDIERVMARAAARAG
soluble fraction (log2): -1.12

HMAFKNGLLQTSKKVTLVRKVDGVTMRFDSLRAASVFLGRNKGYLSNVIKNGRTLDNYEIVVGE
soluble fraction (log2): -0.991

HMQDGVNLENIEQKLSTLGVGKAQYFLQNVGGNKFNAYMALNTDGVEGYQKGSDTLIEIKNVE
soluble fraction (log2): 0.11

HMGNTLAYSEFRQKVQEGAVKQVVLSEDRVTGELTNGDRFTANIVRDPELLKMLNDNNVKYDGKPT
soluble fraction (log2): 0.203

HMLKDKLSDKDFDFYKNKIQIQLQGNPTELKELVRRFSSTEEQQILKTIDYMLDNGFLRIDEDNMIYWK
soluble fraction (log2): -0.00515

HMRRFEFSDGSSNKFWQITRDGTSLTVTFGKIGTAGQTQLKELATEAAAIAEHDKLVKEKTKKGYAEVG
soluble fraction (log2): -0.206

HMRPPLEWGTHGEITTRTVASGYVRASARVRLWDGELQRMTATASTASDARASLQHRIAERLRFSEL
soluble fraction (log2): -1.46

HMLSSAAAIDRILAGGTAAMNHRQFDAALTSFNTVIEMRPDFAEGWNKRATLYYLIGEYERSIADVERTLA
soluble fraction (log2): 0.1

HMPALPGNELLRNLMLEHGLKQVDLAEIGSQGVVSEILSGKRRINRRHADLLARRFSLPAELFSR
soluble fraction (log2): -0.133

HMTLSENEKIIVDTIMKYQPLHIDVLNQQVKVDFYTLLGLLTKLEMEGIVLKNPGNIYKINTL
soluble fraction (log2): -0.346

HMDIDNDIIENILVMGVTKAIAINLSNEFERHRIIANIEYAKEKSKNSEIKNISAFTVEAIRQDYANS
soluble fraction (log2): -1.1

HMSPRAIYVTTSDLNMRMQPSPNAYKRGVAPRGTELLVVEWGDDWSKVIFEGDTAYAASRYLSYVKDEP
soluble fraction (log2): -0.487

HMFFMTMGEKIQLLRKKQNWSQETLAEKLSVSRQAVSLWERDESQPELDKLLKLAKIFSVTTDYLIDDSVT
soluble fraction (log2): -0.386

HMSQLSQIVDAFGGLRPFARALNKPPSTVQYWIEKGGIPASVVSPIMKLSEEKGLGLSRDQVSAAVS
soluble fraction (log2): 0.157

HMINDPSALGQRAFVDELLWMAGYVPEKIEIYQTLPNNSRVYRVKLDSVNGGFIFIRWDKKKKEHYV
soluble fraction (log2): 0.114

HMYMKMNDRIRSRRKELKMTQSVLAKLVGVNRVTITGWESGDYKPGGENLQALAAALEKTPQWLLDGKD
soluble fraction (log2): -0.996

HMAHPRTHEALNPLWEKYLGPNAGNDFFLSGGTSLKALMFLKDLEKTLNKRIAIHAFFKDPTYEHVVSD
soluble fraction (log2): -0.683

HMIISPKKLEYRQRIINALGDRKMSLNELSKAMGYKGITTKLSFTVDDMIKSGVIEKVMVGAYAKLHIP
soluble fraction (log2): -1.65

HMPDRQKDIQNWQQIAETLLNMLDKYVAALETGKTGLAEAYKAIFAETLRRLDDRLDPEQFLP
soluble fraction (log2): -1.54

HMDVIGLEAAKSAAVKDAGISSPTFTKATLDRDDGRSLYEIEFISGSTKYEYDIDALTGSVLSKKTRALS
soluble fraction (log2): -0.112

HMHETMGQIIKRLRKERGLTQESLAERLGVTFQAVSKWETDAGMPDVSQIVPLANAFGVRTDVLFGLEGRD
soluble fraction (log2): -0.111

HMNEAVVVPDVKGLTLDEADEFFKNSKLRYNVVDSVFSKDVAPGAIVELVPVAGSKVKENRIVFVTINAQ
soluble fraction (log2): -0.17

HMYDESVFTGEYHYYYEKLSDDDKLIYRQIYAMMQKRMDGISLNTTDTDNVSRIQQFVLLDNPQF
soluble fraction (log2): -3.04

HMRTYDPQAVELNNKALELINQGRLDSALLVYDQSIKTDKTYYFPHIGKSIIYMRKKDWNKAFEETQQAIK
soluble fraction (log2): 0.18

HMRPHDDHLREQLLGIATETIARTGVEGLSLRTLATDAGTSTSAVYQLFGSRAALLDAVYLRVLE
soluble fraction (log2): -1.26

HMQNVKIKAEVKGEVISPGVYELDEESRIQDLIDASGGFSDKAYYDNINLSMKLKDEMVLVVYDKDKI
soluble fraction (log2): -0.163

HMSLPKVLVPTDITVSQLAKYLEVDAIAIVKKLFGLGVVASLNQRLENEQMQLLGQEFGKDIIFTEN
soluble fraction (log2): -0.438

HMIAPQISSGKVNTKELNVRSGPATTFGIVKKLPLNAMVGIFEEKNGWFRIATGQWVSKTYVDL
soluble fraction (log2): -1.5

HMEHIEVDTSHIAVGSKVKHKAFGLGEITDKGNTYVFVKFDGQAIPKKFQFPGAFTQGFLTK
soluble fraction (log2): 0.144

HMREYEKAVDYVRRMISSGSLNVGDRLPTERELSLELDISRNSTREAMRMLENMGIIVSRHGSGNYISGN
soluble fraction (log2): -0.594

HMEGMSIYVTVNGDMVHLTGKMSYVFVDVFEHIDFDLSKPQGSGIVTKLNGRDAQYMEEIRSGDMIEIYWR
soluble fraction (log2): -0.133

HMEEDPVIAAQRFLNIFRQLHIFTAAKRKEFDELLLKQPASVKGMFASLPGGSVLQEYVNNLEQNAG
soluble fraction (log2): -0.137

HMTDGYAMRLERLNSLEEYVLNKGTVSLEDLAERFGVSINTIRRDLNELISRGQIKKVYGGVSSLHD
soluble fraction (log2): 0.0904

HMNKTVKIPNVSNLSREDAESVLKENGISVNSEVKQIESDTIEKGKVVKTDPSIGTSVKKGRSITIYVSSG
soluble fraction (log2): 0.0637

HMTTELDTTAITPIIQKVLKANPDVVAKYKAGQQQVIGFLMGQVMRELSTKPNPKELQSLIVAQLQQA
soluble fraction (log2): 0.0755

HMKEPGFAPPVRALAAAPITVLAQVAGTNPGEIRARLRAAGYPVASDQQSVQSLVGGDLKAQIGVLNRILA
soluble fraction (log2): -0.00802

HMAHTGGNTLTREKAVSVRSASDALLFEIHWNETPREDILSTREEKVDGKTYSIITIRTGKGREDHYYLLS
soluble fraction (log2): -0.29

HMIQIQDIAFSEFLQELDKGNIVEVNIKGDLINGDLINGKKFKTVAPYDPNLVEKLSKQNVRINVEPIN
soluble fraction (log2): 0.125

HMKSNNPLDHVRVKQRGASWAYYFEKAKVDGKRRRGEGGGYATEQDARMAGVEAYNAYIGGGAK
soluble fraction (log2): -0.0068

HMNPNPFVNLSPRELEVLNLLFKGYGVLEISNELNIGQTTASTFKSRILKKTSTHSVVELIKLAEQYGFIP
soluble fraction (log2): -0.508

HMAVGVFQKEDGYWGYRFSIIVDGKTIARRKFTDENGSKLRTKSEAVKARAAAMVAARMERVS
soluble fraction (log2): -2.96

HMQGEKDDLWREVLDNPDAWWDNRERKNAPGGNPRYPDFKHKDSQTPLWIESRDTPQWAIDALL
soluble fraction (log2): 0.383

HMRESDQSTVELSLERTIQEALMVNPRTSSVEEFSFEWGTGRVKVSFIVYSVDGEPFTVDSIIE
soluble fraction (log2): -2.27

HMGTAESIRLFLSSGLIKGVGEALAGRIVDTFGTDTFDIIENHPELLAGVKGISHRLAMSIYESFSQHIGV
soluble fraction (log2): -1.03

HMTMEFGEFLAKLRKERGYYQKEVAAYLNVTVATISNYEKNVHAPDLDTLVKLADFYDVSTDYLLQRT
soluble fraction (log2): -2.98

HMPTITIQRGIILSSTTKGFIDELSHSQIKNAIVERLGEHHVMIHESQLDAVIKYAQKKEAVINIYL
soluble fraction (log2): -0.0325

HMRMNASERQNQIVDLLSQNGVMKIMDIADHFNVSRETIRRDLIILEDDNRIKKWFGGVISAN
soluble fraction (log2): -0.461

HMLRDMIIQSYRYYTDKERNPRQVWNRMEADAFWEIIRDYEGYNGDGYVHTKIIPEMEALTVIEMDN
soluble fraction (log2): -1.62

HMRQLISIYNNTIGADEIDQMRNILSNSGYKEGVDFAVQTADKKSVILVRRDLAGMIQEQLSGEGLPS
soluble fraction (log2): 0.0201

HMSEHKFIVPEEFNLKRLDQTVAAQFEKISRTKISKIIKSSLLKVNDKVVTDQSIKIKQDDVITFTEIKDQ
soluble fraction (log2): 0.0288

HMEFTVFMNSAGGSKLQVVKTVKELTGLGLKEAKAIVDGSPGPVKEGLSKADAEAMLAKLQEAGADVEL
soluble fraction (log2): -0.0948

HMAAENAVGARVKALREAMDLSLRDLSERSGVSPTMLSQVERGSTSPTLAVAEKIAAGLDLSLSQLLRL
soluble fraction (log2): -0.0179

HMTYVSVSNYIGTNVDKAKGELESQGLVVLLEEQKTEDKSQDGMVLKQTIEGGTKVSSGSRITLIYGRYT
soluble fraction (log2): 0.197

HMDHAHWEEHEVKLLLTLAIQEKEKFNWNQFGLTREGWRNIYPHFPQYSRKQINNKFDFLKQKYRAWKDS
soluble fraction (log2): -1.84

HMSMVGSVNKQGRPFALLRVDNLLYQVKVGDYLGQNYGRITQIDETQIALREIVQDAAGEWIERPGVLQL
soluble fraction (log2): 0.00588
